From the nanobody polyreactivity screen of Harvey et al. (2022)

Assay: yeast display, Sf9 membrane polyspecificity reagent, FACS + sequencing; frameworks hold sequencing errors
Summary of the method: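 Galactose-induced (36–48 hours) yeast carrying a synthetic nanobody display library were exposed to 10% biotinylated, detergent-solubilized Sf9 membrane reagent at 4 °C for 1 hour. FACS followed streptavidin microbead enrichment, using low and high (top ~1%) gates for expression (anti-HA) and reagent binding (streptavidin). Colony PCR, MiSeq 2 × 250 sequencing and CDR-length filtering followed. Labels for polyreactivity reflect the gate of origin.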

| Sequence | polyreactivity (PSR sort gate) |
| --- | --- |
| QVQLVESGGGLVQAGGSLRLSCAASGRTLRYYAMGWYRQAPGKERELVAAISRRGGRTYYADSVKGRFTISRDNAKNTVYLQMNSLKPEDTAVYYCNARYDVYRWRYDYDYWGQGTQVTVSS | high polyreactivity |
| QVQLVESGGGLVQAGGSLRLSCAASGRIFYLNAMGWYRQAPGKERELVAGITNSTTGTYYADSVKGRFTISRDNAKNTVYLQMNCLKPEDTAVYYCITDVAYEEPVETYDYWGQGTQVTVSS | low polyreactivity |
| QVQLVESGGGLVQAGGSLRLSCAASGSIFAVNAMGLYRQAPGKERELVATITGRDGSTYYADSVKGRFTISRDNAKNTVYLQMNRLKPEDTAVYYCTARRKRTYDYWGQGTQVTVSS | high polyreactivity |
| QVQLVESGGGLFQAGGSLRLSCAASGNTFPYYAMGWYRQAPVKERELVAAISRSGGTTYYADSVKGRFTISRDNAKNTVYLQMTSLKPEDTAVYYCAALYGSRSTYHMDDYWGQGSQVTVSS | high polyreactivity |
| QVQLVESGGGLVQAGGSLRLSCAASGSIFSEYAMGWYRQAPGKERELVAAINDGGGSTYYADSVKGRFTISRDNAKNTVYLQMNSLKPEDTAVYYCAAETVRWWWLYDYWGQGTQVTVSS | high polyreactivity |
| QVQLVESGGGLVQAGVSLRLSCAASGRIFIVYAMGWYRQAPGKERELVAAISWRGGNTYYADSVKARFTISRDNAKNTVYLQMNSLKPEDTAVYYCAARQYGTAAFDYWGQGTQVTVSS | high polyreactivity |
| QVQLVESGGGLVQAGGSLRLSCAASGSIFTIYAMGWYRQAPGKERELVATITGGGGSTYYADSVKGRFTISRDNAKNTVYLQMNSLKPEDTAVYDCAADSPGWTYTSRSYDYWGQGTQVTVSS | low polyreactivity |
| QVQLVESGGGLVQAGGSLRLSCAASGITITRYDMGWYRQAPGKERELVAAINWSGGRTYYADSVKGRFTISRDNAKYTVYLQMNSLKPEDTAVYYCNRALKYRRRDYWGQGTQVTVSS | high polyreactivity |
| QVQLVESGGGLVQAGGSLRLSCAASGITFDLYVMGWYRQAPGKERDLVAAINRGTSTYYADSVKGRFTISRDNAKITVYLQMNSLKPEDTAVYYCAADSGGVALYRYDYWGKGTQVTVSS | low polyreactivity |
| QVQLEESGGGLVQAGGRIRLSCAASGRIFHGYAMGWYRQAPGKERELVAAISWRGDSTYYADSVKGRFTNSRDNAKNTVYLQMNSLKPEDTAVYYCNDLGENYQFNYWGLGTQVTVSS | low polyreactivity |
| QVQLVESGGGLVQAGGSLRLSCADSGRTIYSNAMGWNIQAPGKERELVAAITGSSGSTYYADSVKGRFTISRDNAKNTVYLQMYSLKPEDTAVYYCAASCYGSLVRQLRLRGQGTQVTVSS | low polyreactivity |
| QVQLVESGGGLVQAGGSLRLSCAASGLTFSDYAMGWYRQAPGKERELVAGISSGGSTYYADSVKGRFTISRDNAENTVYLQMNSLKPEDTAVYYCAATRYNRWPIKFDYWGQGTQVTVSS | high polyreactivity |
| QVQLVESGRGLVQAGGSLRLSCAATGLTFNQYAMGWYRQAPGKERELVAAITRVGRTYYADSVKGRFTISRDNAKNSVYLQMNSLKPEDTAVYYWGYPDVAERRGSYYWGQGTQVTVSS | high polyreactivity |
| QVQLVESGGGLVHAGCSLRLSCAATGIIFAWYVMGWYRPAPGKERELVAAITQSGGSTFYADSVKGRFTISRDNAKNTVYLQMNSLKPEDTAVYYCNTEDFFNVPEMDSWGQGTQVTVSS | low polyreactivity |
| QVQLVESGGGLVQEGGSLRLSCAASGRIFRVYTMGWYRQAPGKERELVASITGRGGSTYYADSVKGRFTISRDNAKNTVYLQMNSLKPEDTAVYYCAAQTFRGFSEFDYWGQGTQVTLSS | high polyreactivity |
| QVQLVESRGGLVQAGGSLRLSCAASGIIFQSYTMGWYRQAPGKERELVAAISTSGSTYYADSVKGRFTISRDNAKNTVYLQMNSLKPEDTAVYYCATYRYRIWWWGEYDYWGQGTQVTVSS | high polyreactivity |

| Sequence | polyreactivity (PSR sort gate) |
| --- | --- |
| QVQLVESGGGLVQAGGSLRLSCAASGSIFGENAMGWYRQATGKERELVAAITWGGTSTYYADSVKGRYTISRDNAKNTVYLQMNSLKPEDTAVYYCNTPRYVRRQGVKRYDYWGQGTQVTVSS | low polyreactivity |
| QVQLVESGGGLVQAGGSLRLSCAASGSTFQENAMGWYRQAPGKEREFVAAISGSGGSTYYADSVKGRFTISRDNAKNTVYLQMNSLKPEDTAVYYCAARHYFRSRRRYDYWGQGTQVTVSS | low polyreactivity |
| QVQHVESGGGLVQAGGSLRLSCAASGSISKINAMGWYRQAPGKERELVAAINTGDSTYYADSVKGRFTISRDNAKNSVYLQMNSLKPEDSAVYYCAAEGSPTGYDYWGQGTQVTVSS | low polyreactivity |
| QVQLVESGGGLVQAGGRLRLSCAASGRTFAYYAMGWSRQAPGKERELVAAITRGGSTYYADSVKGRFTISRDNAKNTVYLQMNSLKPEDTAVYYCAAATSPYQDDYWGQGTQVTVSS | low polyreactivity |
| QVQLVESGGGLVQAGGSLRLSCAASGSIFYKYMGWYRQAPGKERELVAAISWSGGRTYYADSVKGRFTISRDNAKNTVYLQMNSLKPEDTAVYYCNRVVLWRIGDKAFEYWGQGTQVTVSS | high polyreactivity |
| QVQLVESGGGLVQAGGSRRLSCAASGSTFGWYVMGWYRPAPGKDREFVAAIDNSGGDTYYADSLKGRFTISRDTAKNTVYLQMNSLKPEDTAVYYCDDEAYTRASFENDYWGQGTQVTVSS | low polyreactivity |
| QVQLVESGGGLVQAGGSLRLSCAASGSTFTTYAMGWYRQAPGKERELVAVITDSGGTYYADSVQGRFTISRDNAKNTVYLQMNSLKPEDTAVYYCNRVFPPTDYEFDSWGQGTQVTVSS | low polyreactivity |
| QVQLVESGGGLVNAGGTLRLSCAASGSTFYRNAMGWYRQAPGKERELVATITYSGGSTYYADSVKGRFTNSRDNAKNTVYLQMNSLKPEDTAVYYCAVRRLRRNFVSYYYWGQGTQVTVSS | high polyreactivity |
| QVQLVESGGGLVQAGCSLRLSCAASGSTFYYYAMGWYRQAPGKERELVAAISNRDGRTYYADSVKGRFTISRDTAKNTVYFQMNSLKPEDSAVYYCNAYSYGHYYWGHGTQVTVSS | high polyreactivity |
| QVQLVESGGGLVQAGGSLRLSCAASGLIFGWYAMGWYRQAPGKERELVAGISGSGGITYYADSVKGRFTISRDNAKNTVYLQMNSLKPEDTAVYYCATAAASHKYGYWGQGTQVTVSS | low polyreactivity |
| QVQLVESGGGLVQAGGSLRLSCAASGFIIEAYTMGWYRQAPGKERELVAAITWTGGSTYYADSVKGRFTISRDNAKNTVYLQMNSLKPEDTAVYYCNVPYYSFRELSSYYWGQGTQVTVSS | high polyreactivity |
| QVQLVESGGGLVQAGGSLLLICAASGSIFYFYTMGWYRQAPGKERELVASITYSGGRTYYADSVKWSFTMSRDNAKHTVYLQMNSLKPEDPPVDYCAVRGYRRYWGQGTQVTVSS | high polyreactivity |
| QVQLVESGGGLVQAGGSHRLSCAASGRTFPGNAMGWYRQAPGKERDLVAAITSSGDTDYADSVKGRFKISRDNAKNTVDLQMNSLKTEDRAVYYCAKGYSYGRPWDIYYYWGHGTQVTVSS | low polyreactivity |
| QVQLVESGGGLVQAGGSLRLSCAASGSIFYVYAMGWYRQAPGKEREMVAAISKSGGSTYYADSVKGRFTISRDNAKNTVYLQMNSLKPEDTADYYCAAYFSYGSIIEDYWGQGTQVTVSS | low polyreactivity |
| QVQLVESGGGLVQAGGSLRLSCAASGRIFWYNAMGWSRQAPGKERELVAAISSIDGTTYYADSLKGRFTISRDNAKNTFYLQMNSLKPEDTAVYYCAAEDPADQYDYWGQGTQVTVSS | high polyreactivity |
| QVQLVESGGGLVQAGGSLRLSCAASGSIFTINAMGWYRQAPGKVRELVAAISWSGAPTYYADSVKGRFTISRDNAKNTVYLQMNSLTPEDTAVYYCATGYNYLDRNTGYVHRFDYWGQGTQVTVSS | low polyreactivity |
